This note sets out measurements from US20240101668A1 (WUGEN, published 2024).

Numbering of substitutions follows the chain as printed.

Sequences and labels used below:
B1: Polypeptide No. 25 (scFv, V domains shown)
VH: QVQLVQSGAEVKKPGASVKVSCKASGYTFTGYYMHWVRQAPGQGLEWMGRINPNGGSTTYAQKFQGRVTMTRDTSTSTVYMELSSLRSEDTAVYYCARDDFYYYYLDFWGKGTTVTVSS
VL: DIQMTQSPSSLSASVGDRVTITCRASQSINDWLAWYQQKPGKAPKLLIYAASNLQSGVPSRFSGSGSGTDFTLTISSLQPEDFATYYCQQGYSTPPTFGQGTKVEIKR
notes: scFv
B2: Polypeptide No. 1 (scFv, V domains shown)
VH: QVQLVQSGAEVKKPGASVKVSCKASGYSFTGYYIHWVRQAPGQGLEWMGWINPNSGGTNYAQKFQGRVTMTRDTSTSTVYMELSSLRSEDTAVYYCARDQWDGYNSGYFDYWGQGTLVTVSS
VL: B1 VL with S28T, A50S, N53T, Q55H, G91A, P96W
notes: scFv
B3: Polypeptide No. 203 (scFv, V domains shown)
VH: QVQLVQSGAEVKKPGSSVKVSCKASGYTLTELSMHWVRQAPGQGLEWMGRIIPISGTANYAQKFQGRVTITADESTSTAYMELSSLRSEDTAVYYCARAARYCSSTSCYWRDGMDVWGQGTTVTVSS
VL: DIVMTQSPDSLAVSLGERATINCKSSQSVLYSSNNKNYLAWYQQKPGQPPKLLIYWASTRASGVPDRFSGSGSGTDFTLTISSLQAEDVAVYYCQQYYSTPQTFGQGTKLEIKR
notes: scFv
B4: Polypeptide No. 202 (scFv, V domains shown)
VH: QVQLVQSGAEVKKPGASVKVSCKASGYTFTNYYMHWVRQAPGQGLEWMGVINPSGGSTNYAQKFQGRVTMTRDTSTSTVYMELSSLRSEDTAVYYCARAGVGAFHIWGQGTMVTVSS
VL: B1 VL with N30R, D31S, A50D, Q55E, S56T, G91I, T94L, P96R
notes: scFv
B5: Polypeptide No. 221 (scFv, V domains shown)
VH: QVQLVQSGAEVKKPGASVKVSCKASGYTFTDNYMHWVRQAPGQGLEWMGWMTPDSNNTGFAQNFQGRVTMTRDTSTSTVYMELSSLRSEDTAVYYCALGDGPFGMDVWGQGTTVTVSS
VL: DIVMTQSPLSLPVTPGEPASISCRSSQSLLHSNGYNYLDWYLQKPGQSPQLLIYGASYLQSGVPDRFSGSGSGTDFTLKISRVEAEDVGVYYCMQALQGPITFGQGTKVEIKR
notes: scFv
B6: Polypeptide No. 232 (scFv, V domains shown)
VH: QVQLVQSGAEVKKPGASVKVSCKASGYTFTSYGIHWVRQAPGQGLEWMGGIIPIFGTASYAQKFQGRVTMTRDTSTSTVYMELSSLRSEDTAVYYCTRSNGIAAAGTHWYFDLWGRGTLVTVSS
VL: DIQMTQSPSSLSASVGDRVTITCRASQNIANSLNWYQQKPGKAPKLLIYAASSLQSGVPSRFSGSGSGTDFTLTISSLQPEDFATYYCQQYSSYPPTFGPGTKVDIKR
notes: scFv
B7: Polypeptide No. 255 (scFv, V domains shown)
VH: QVQLVQSGAEVKKPGSSVKVSCKASGYTLTELSMHWVRQAPGQGLEWMGGIIPISGTVTYAQKFQGRVTITADESTSTAYMELSSLRSEDTAVYYCANKGQQLVRGYFQHWGQGTLVTVSS
VL: DIQMTQSPSSLSASVGDRVTITCQASHDIRNSVNWYQQKPGKAPKLLIYATSSLQSGVPSRFSGSGSGTDFTLTISSLQPEDFATYYCQQSYNTPFTFGQGTKLEIKR
notes: scFv
B8: Polypeptide No. 267 (scFv, V domains shown)
VH: QVQLVQSGAEVKKPGSSVKVSCKASGYTLTSFGISWVRQAPGQGLEWVGMIIPLSGTTHYAQKFQGRVTITADESTSTAYMELSSLRSEDTAVYYCANLYGGNAYYYYGMDVWGQGTTVTVSS
VL: B7 VL with Q24R, H27Q, R30S, S32F, N34A, T51A, Y92F, N93D, F96Y
notes: scFv
B9: Polypeptide No. 252 (scFv, V domains shown)
VH: QVQLVQSGAEVKKPGSSVKVSCKASGYTLTDLSIHWVRQAPGQGLEWVGGIIPMSGTANYAQKFQGRVTITADESTSTAYMELSSLRSEDTAVYYCARSSSSWPKYFQHWGQGTLVTVSS
VL: not shown
notes: scFv
B10: Polypeptide No. 230 (scFv, V domains shown)
VH: QVQLVQSGAEVKKPGSSVKVSCKASGGTFSSNAINWVRQAPGQGLEWMGGIIPLFGTTNYAQKFQGRVTITADESTSTAYMELSSLRSEDTAVYYCARVLSGWYGTYYFDYWGQGTLVTVSS
VL: EIVMTQSPATLSVSPGERATLSCRASQSVSADYIAWYQQKPGQAPRLLIYDVSTRASGIPARFSGSGSGTEFTLTISSLQSEDFAVYYCQHYGSSQVTFGQGTKVEIKR
notes: scFv
B11: Polypeptide No. 251 (scFv, V domains shown)
VH: QVQLVQSGAEVKKPGSSVKVSCKASGGTFSSDAINWVRQAPGQGLEWMGGIIPIVGTPTYAQKFQGRVTITADESTSTAYMELSSLRSEDTAVYYCAKGLAFGVFDGLDVWGQGTTVTVSS
VL: B10 VL with A31S, D32N, I34L, S57T, H91Q, Q96T, V97L, Q101G
notes: scFv
B12: Polypeptide No. 216 (scFv, V domains shown)
VH: QVQLVQSGAEVKKPGSSVKVSCKASGNTFTMYYMHWVRQAPGQGLEWVGAIIPISGTVIYARKFQGRVTITADESTSTAYMELSSLRSEDTAVYYCARLSGGRMYDAFDIWGQGTTVTVSS
VL: not shown
notes: scFv
B13: Polypeptide No. 234 (scFv, V domains shown)
VH: QVQLVQSGAEVKKPGSSVKVSCKASGHTFTAYYMHWVRQAPGQGLEWMGWMSPYSGNTGYAQNFQGRVTITADESTSTAYMELSSLRSEDTAVYYCARATRGTIQHWGQGTLVTVSS
VL: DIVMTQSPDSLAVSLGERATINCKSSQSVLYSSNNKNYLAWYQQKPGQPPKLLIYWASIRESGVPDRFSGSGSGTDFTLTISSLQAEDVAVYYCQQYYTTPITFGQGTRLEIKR
notes: scFv
B14: Polypeptide No. 217 (scFv, V domains shown)
VH: QVQLVQSGAEVKKPGSSVKVSCKASGYTFTTFYLHWVRQAPGQGLEWIGGIIPMSGTANYAQKFQGRVTITADESTSTAYMELSSLRSEDTAVYYCASGGENGMDVWGQGTTVTVSS
VL: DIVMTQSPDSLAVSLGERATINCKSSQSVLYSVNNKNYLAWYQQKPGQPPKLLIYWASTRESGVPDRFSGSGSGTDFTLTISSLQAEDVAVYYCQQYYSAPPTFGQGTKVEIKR
notes: scFv
B15: Polypeptide No. 209 (scFv, V domains shown)
VH: EVQLLESGGGLVQPGGSLRLSCAASGFAFSSYVLHWVRQAPGKGLEWVAGIWVDGHNKDYADSVKGRFTISRDNSKNTLYLQMNSLRAEDTAVYYCAREFGAAGSFQHWGQGTLVTVSS
VL: B1 VL with N30S, D31T, A50D, N53K, Q55E, S56T, G91S, S93T, P96Y
notes: scFv
B16: Polypeptide No. 264 (scFv, V domains shown)
VH: QVQLVQSGAEVKKPGSSVKVSCKASGYTLTELSMHWVRQAPGQGLEWMGGIIPISSATSIPQKFQGRVTITADESTSTAYMELSSLRSEDTAVYYCARGALYSSSPVRVVAGTKGWFDPWGQGTLVTVSS
VL: B6 VL with N28D, A30S, S32Y, N34A, S92Y, P96L, P100G, D105E
notes: scFv
B17: Polypeptide No. 227 (scFv, V domains shown)
VH: QVQLVQSGAEVKKPGSSVKVSCKASGYTLNELFMHWVRQAPGQGLEWVGGIIPMSGTTFYAQTFQGRVTITADESTSTAYMELSSLRSEDTAVYYCAKGVRQYSYGRYYYGMDVWGQGTLVTVSS
VL: DIQMTQSPSSLSASVGDRVTITCRASQSVSSYLNWYQQKPGKAPKLLIYGASNLQSGVPSRFSGSGSGTDFTLTISSLQPEDFATYYCQQSYTTPWTFGQGTRLEIKR
notes: scFv
B18: Polypeptide No. 236 (scFv, V domains shown)
VH: QVQLVQSGAEVKKPGSSVKVSCKASGGTFSSYAISWVRQAPGQGLEWMGGIIPILGIANYAQKFQGRVTITADESTSTAYMELSSLRSEDTAVYYCAHVDGYGMDVWGQGTTVTVSS
VL: EIVMTQSPATLSVSPGERATLSCRASQSVSSNLAWYQQKPGQAPRLLIYDVSSRATGIPARFSGSGSGTEFTLTISSLQSEDFAVYYCQQLDAYPLTFGGGTKVEIKR
notes: scFv
B19: Polypeptide No. 266 (scFv, V domains shown)
VH: QVQLVQSGAEVKKPGSSVKVSCKASGYSLTELSIHWVRQAPGQGLEWMGGINPISGTANYAQKFQGRVTITADESTSTAYMELSSLRSEDTAVYYCARGTVRLNWFDPWGQGTLVTVSS
VL: B18 VL with S30G, N32Q, A34G, D50G, V51A, S53T, L91S, D92F, A93S, Y94T
notes: scFv
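Wherever geometric mean MFI fold change over Jurkat parental is given: fixed Jurkat cells bearing either CD33 variant, barcoded by dye, exposed to myc-tagged scFv periplasmic extracts, detected with anti-myc PE antibody and read by flow cytometry.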

T4 sequence (P20138 18-364): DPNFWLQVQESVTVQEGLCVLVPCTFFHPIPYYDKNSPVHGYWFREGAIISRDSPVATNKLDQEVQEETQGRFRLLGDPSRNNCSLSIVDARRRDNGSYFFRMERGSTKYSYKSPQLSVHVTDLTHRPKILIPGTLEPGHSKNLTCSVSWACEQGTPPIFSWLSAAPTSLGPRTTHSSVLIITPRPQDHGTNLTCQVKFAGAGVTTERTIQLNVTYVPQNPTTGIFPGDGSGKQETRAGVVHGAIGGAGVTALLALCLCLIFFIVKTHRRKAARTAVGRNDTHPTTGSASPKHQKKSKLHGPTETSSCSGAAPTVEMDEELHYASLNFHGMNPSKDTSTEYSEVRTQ
T5 sequence (P20138 18-364 R69G): as the sequence (P20138 18-364) above, with R52G counted along it

The target of the first test is T1, huCD33-G69-Fc recombinant protein (human, UniProt P20138 18-259).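 Further: scFvs from periplasmic extracts captured on biosensors via anti-V5 antibody, exposed to recombinant huCD33 variants for 2 min, 5 min dissociation, scored as binding, no binding or ambiguous.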
T1 construct: extracellular domain; also called CD33 R69G
T1 sequence (P20138 18-259 R69G): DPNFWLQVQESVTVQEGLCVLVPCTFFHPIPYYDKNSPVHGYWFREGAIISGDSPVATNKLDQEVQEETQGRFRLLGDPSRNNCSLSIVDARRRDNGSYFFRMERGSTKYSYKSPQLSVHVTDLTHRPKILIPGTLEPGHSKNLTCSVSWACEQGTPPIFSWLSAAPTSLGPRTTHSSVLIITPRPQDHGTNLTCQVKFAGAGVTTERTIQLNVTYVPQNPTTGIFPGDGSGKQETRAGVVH
Put plainly: BLI.
Consider B1, for which the binding result was “no binding”.

B2: the binding result is “no binding”.

The target of a further test is T2, huFLT3-T227 stably expressed on Ramos cells (human, UniProt P36888 27-993).
T2 construct: whole, on cells; also called FLT3 WT
Put plainly: FACS on cells.
On to B3, for which the “FACS geometric mean fold change over Jurkat parental” value (shortened to “FACS geometric mean fold change”) was less than 2 fold.

As for B4, the “FACS geometric mean fold change” value is less than 2 fold.

Turning to B5, the “FACS geometric mean fold change” value is less than 2 fold.

A further test concerns the target T3, huFLT3-M227 stably expressed on Ramos cells (human, UniProt P36888 27-993).
T3 construct: whole, on cells; also called FLT3 Mutant
Put plainly: FACS on cells.
As to B4, the “FACS geometric mean fold change” value lay within 2 to 10 fold.

In the case of B5, the “FACS geometric mean fold change” value lay in the range of 2 to 10 fold.

Another test addresses T4, huCD33-R69 stably expressed on Jurkat cells (human, UniProt P20138 18-364).
T4 construct: whole, on cells; >200,000 receptors per cell; also called CD33 WT; CD33^ARG69
Put plainly: FACS on cells.
Protocol: (§1) Jurkat cells were engineered to stably express either the huCD33-R69 or huCD33-G69 variant at >200,000 receptors per cell. Parental, huCD33-R69, and huCD33-G69 Jurkat cell lines were stained with differing levels of CellTrace Violet Cell Proliferation Kit (ThermoFisher, cat. #C34557) to barcode each cell line. Barcoded Jurkat cell lines were fixed with paraformaldehyde and incubated with myc-labeled scFv periplasmic extracts and a secondary anti-myc PE-conjugated monoclonal antibody. Appropriate positive and negative controls were used. Stained cells were analyzed by flow cytometry (CytoFLEX, Beckman Coulter, Inc.) and binding was assessed by change in PE mean fluorescence intensity (MFI) of the barcoded cell populations.
On to B1, for which the “geometric mean MFI fold change over Jurkat parental” value (shortened to “geometric mean MFI fold change”) is more than 30 fold.

Regarding B2, the “geometric mean MFI fold change” value was more than 30 fold.

A further test concerns the target T5, huCD33-G69 stably expressed on Jurkat cells (human, UniProt P20138 18-364).
T5 construct: whole, on cells; >200,000 receptors per cell; also called CD33 Mutant; CD33 R69G
Put plainly: FACS on cells.
Protocol: as §1
Regarding B1, the “geometric mean MFI fold change” value was less than 2 fold.

As to B2, the “geometric mean MFI fold change” value was less than 2 fold.

Another test deals with T6, huFLT3-T227-His (human, UniProt P36888 27-543).
T6 construct: extracellular domain; also called FLT3 WT
Put plainly: BLI. In general terms: In BLI a coated tip is dipped into the sample, and binding shifts an interference pattern.
Protocol: (§2) Discovered scFvs were analyzed for binding to huCD33-R69-His or huCD33-G69-Fc recombinant proteins (for anti-CD33 scFvs; for CLL-1 scFvs, huCLL1-K244-Avi-Tev-His or huCLL1-Q244-Avi-Tev-His were used; for FLT3, huFLT3-T227-His or huFLT3-M227-Fc were used) using BLI on a ForteBio Octet HTX instrument. Streptavidin-coated biosensors were loaded with biotinylated anti-V5 tag monoclonal antibody for 5 min and were then quenched and blocked with 20 μM amine-PEG2-Biotin for 5 min. scFvs were captured on biosensors from scFv clone periplasmic extracts. huCD33 (or huCLL-1, or huFLT3) proteins were then associated with the captured scFvs for 2 minutes, followed by dissociation with buffer (1×HBST [10 mM HEPES pH 7.4, 150 mM NaCl, 0.05% Tween-20], 1 g/L BSA) for 5 minutes. […] Data was fitted with 1:1 Langmuir equation and off-rate values were reported.
On to B6, for which the binding result was “binds”.

In the case of B7, the binding result was “binds”.

Regarding B8, the binding result was “binds”.

B9: the binding result is “binds”.

B10: the binding result is recorded as “binds”.

As for B11, the binding result is recorded as “binds”.

Regarding B12, the binding result was “binds”.

In the case of B3, the binding result is “no binding”.

B13: the binding result is recorded as “binds”.

Consider B14, for which the binding result is “binds”.

In the case of B15, the binding result was “binds”.

On to B4, for which the binding result is “no binding”.

In the case of B16, the binding result is given as “binds”.

B17: the binding result is recorded as “binds”.

As for B18, the binding result was “binds”.

With B19, the binding result is listed as “binds”.

As for B5, the binding result was “no binding”.

A further test has as its target T7, huFLT3-M227-Fc (human, UniProt P36888 27-543).
T7 construct: extracellular domain; also called FLT3 Mutant
Put plainly: BLI.
Protocol: as §2
Take B6: the binding result is listed as “binds”.

Consider B7, for which the binding result was “binds”.

As for B8, the binding result is “binds”.

As to B9, the binding result is “binds”.

Take B10: the binding result is listed as “binds”.

Regarding B11, the binding result is “binds”.

Consider B12, for which the binding result was “binds”.

Take B13: the binding result is given as “binds”.

Take B14: the binding result is recorded as “binds”.

Regarding B15, the binding result was “binds”.

For the molecule B16, the binding result is “binds”.

On to B17, for which the binding result is “binds”.

For the molecule B18, the binding result was “binds”.

As for B19, the binding result is “binds”.
